Some results are limits rather than exact numbers.

The target in one assay is RSV F on RSV-A2 virus (Respiratory Syncytial Virus (RSV-A2), UniProt P03420 26-574). As to the kind of experiment: cell-based or functional assay.
Assay [1] deals with T1, RSV prefusion F (preF), subtype B (respiratory syncytial virus subtype B).
T1 construct: also called Prefusion subtype B
The assay is described as follows: BLI, IgG. (Biolayer interferometry detects binding as a change in optical thickness at a sensor tip.)

The target in assay [2] is RSV F on RSV subtype B virus (mKate-RSV B 18537) (respiratory syncytial virus B 18537, UniProt P13843 26-574). As to the kind of experiment: cell-based or functional assay.
The target of assay [3] is T2, RSV postfusion F (postF), subtype A (respiratory syncytial virus subtype A, UniProt P03420 26-513).
T2 construct: also called Postfusion subtype A; F deltaFP
As to the kind of experiment: BLI.

The target in assay [4] is RSV F on RSV subtype A virus (mKate-RSV A2) (respiratory syncytial virus A2, UniProt P03420 26-574). As to the kind of experiment: cell-based or functional assay.

B1: ADI-41520 (antibody, V domains shown)
VH: EVQLLESGGGVVRPGGSLRLSCAASGFSFDDYGMTWVRQAPGKGLEWVSGINWNGISTDYADSVKGRFTISRDNAKNSVYLQMNSLRAEDTALYYCARIGGVVVIASTAYYYGMDVWGQGTTVTVSS
VL: DIQLTQSPSSLSAYVGDRVTITCRASQSIRNHLNWYQQKPGKAPQLLIYTASSLQDGVPSRFSGSGSGTDFTLAISSLQPEDFATYYCQQSHSMPPTFGQGTRLEIK
On to B1, for which, in the assay with RSV F on RSV-A2 virus, the “Neutralization IC50 (RSV subtype A)” value was > 25 µg/mL.

B2: ADI-14374 (antibody, V domains shown)
VH: QVQLVQSGGVVVQPGGSLRLSCAASGFNFDDFTMHWVRQAPGKGLEWVSLITWDGGITYYADSVKGRFTISRDNGKNSLYLRMNSLRTEDTALYYCAKDGDRYSGYAFLDYWGQGTLVTVSS
VL: SYELTQPPSVSVAPGKTARLTCGGNNIGSESVHWYQQRPGQAPVLVSYYNGDRPSGIAERISASKSGNTATLTIYRVEAGDEADYYCQVWHSSSDHFVFGTGTQLTVL
notes: full-length IgG; also called Ab 42
B2 showed a Kd in assay [1] of 2.09 nM. Moreover, the “Neut IC50 subtype B” value in assay [2] amounted to 0.86 µg/mL.

B3: ADI-19488 (antibody, V domains shown)
VH: QVQLVQSGAEVKKPGASVKVSCKVSGYTLTELSMHWVRQAPGKGLEWMGGFDPEDGETIYAQKFQGRVTMTEDTSTDTAYMELSSLRSEDTAVYYCATARFLEWLSGTNWFDPWGQGTLVTVSS
VL: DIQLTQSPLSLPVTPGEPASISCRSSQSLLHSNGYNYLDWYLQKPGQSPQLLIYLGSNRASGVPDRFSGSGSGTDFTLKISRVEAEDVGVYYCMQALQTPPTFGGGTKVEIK
notes: full-length IgG; also called Ab 190
Take B3: the binding result in assay [3] is recorded as “no binding”. For the same molecule, the dissociation constant Kd in assay [1] came to 10.7 nM. In addition, the “Neut IC50 subtype B” value in assay [2] came to 3.38 µg/mL.

B4: ADI-14370 (antibody, V domains shown)
VH: EVQLVESGGGVVQPGKSLRLSCAASGFSFSTFAMHWVRQAPGKGLEWVAVISYDGSNKFYADSVKGRFTISRDSSKNTLYLQMNSLRAEDTAVYYCARGGYSSGWYVTHFDYWGQGTLVTVSS
VL: QSVLTQPPSASGSPGQSVTISCTGTSSDVGGYNYVSWYQQHPGKAPKLMIYEVSKRPSGVPDRFSGSKSGNTASLTVSGLQAEDEADYYCSSYAGSNNLYVFGTGTKLTVL
notes: full-length IgG; also called Ab 38
B4 showed a Kd in assay [1] of 4.18 nM. In addition, the “Neut IC50 subtype B” value in assay [2] was 1.38 µg/mL.

B5: ADI-19432 (antibody, V domains shown)
VH: QVQLVQSGAEVKKPGASVKVSCKVSGYTLTELSMHWVRQAPGKGLEWMGGFDPEDGETIYAQKFQGRVTMTEDTSTDTAYMELSSLRSEDTAVYYCATEREEGGYSGYDDAFDIWGQGTMVTVSS
VL: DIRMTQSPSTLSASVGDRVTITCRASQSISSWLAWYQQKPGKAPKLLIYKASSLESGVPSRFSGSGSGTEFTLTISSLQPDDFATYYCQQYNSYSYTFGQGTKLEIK
notes: full-length IgG
For the molecule B5, in assay [3], the binding result is on record as “no binding”. Moreover, the “Neut IC50 subtype A” value in assay [4] was 11 µg/mL.

B6: ADI-19487 (antibody, V domains shown)
VH: QVTLKESGPALVKPTQTLTLTCTFSGLSISTSGMCVSWIRQPPGKALEWLARIDWDDDKYYSTSLKTRLTISKDTSKNQVVLTMTNMDPVDTATYYCARINYYDSSGYYVYYFDYWGQGTLVTVSS
VL: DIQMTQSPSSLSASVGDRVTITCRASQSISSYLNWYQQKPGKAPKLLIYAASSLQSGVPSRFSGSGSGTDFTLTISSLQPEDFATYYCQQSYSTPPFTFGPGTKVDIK
Consider B6, for which, in assay [2], the “Neut IC50 subtype B” value is 7.96 µg/mL.

B7: ADI-41522 (antibody, V domains shown)
VH: QVQLVQSGAEVKKPGSSVKVSCKASGGTFNNFPISWVRQAPGQGLEWMGGIIPMFGRANYAQKFQGRVTITADESTTTVYMALRSLRSEDTAVYYCARPDYDVLTGFEGAFDIWGQGTMVTVSS
VL: QSALTQPASVSGSPGQLITISCTGTSRDVGGYNYVSWYQQHPGKAPKLMIYDVTNRPSGVSNRFSGSKSGNTASLTISGLQSEDEADYYCSSYTSTTTWVFGGGTKLTVL
Turning to B7, the “Neutralization IC50 (RSV subtype A)” value in the assay with RSV F on RSV-A2 virus was > 25 µg/mL.

B8: ADI-14378 (antibody, V domains shown)
VH: QVQLVESGGGLVQPGGSLRLSCAASGFTFSSYWMHWVRQAPGKGLVWVSRINSDGSSPTYADSVKGRFTISRDNAKNTVFLQMNSLRAEDTAVYYCARESWELIRGDAFDIWGQGTTVTVSS
VL: DIQMTQSPSSLSASVGDRVTITCRASQSISSSLNWYQQKPGKAPNLLIYAASTLQSGVPSRFSGSGSGTDFTLTISSLQPEDFATYYCQQSYRTPRTFGQGTKVEIK
notes: full-length IgG; also called Ab 46
For the molecule B8, the Kd in assay [1] came to 6.1 nM. In addition, in assay [2], the “Neut IC50 subtype B” value turned out to be 21.6 µg/mL.

B9: ADI-19448 (antibody, V domains shown)
VH: EVQLLESGGGLVKPGGSLRLSCAASGFTFSSYSMNWVRQAPGKGLEWVSSISSSSSYIYYADSVKGRFTISRDNAKNSLYLQMNSLRAEDTAVYYCARELLDPGIAAAGFDYWGQGTLVTVSS
VL: QSVLTQPPSVSGAPGQRVTISCTGSSSNIGAGYDVHWYQQLPGTAPKLLIYGNSNRPSGVPDRFSGSKSGTSASLAITGLQAEDEADYYCQSYDSSLSVNYVFGTGTKVTVL
notes: full-length IgG
As for B9, in assay [3], the binding result is reported as “no binding”. The molecule further returned a Kd in assay [1] of 5.58 nM. For the same molecule, in assay [4], the “Neut IC50 subtype A” value was found to be 9.64 µg/mL.

B10: ADI-19494 (antibody, V domains shown)
VH: QVQLVQSGAEVKKPGSSVKVSCKASGGTFSSYVISWVRQAPGQGLEWMGGIIPIFGTTYYAQKFQDRVTITTDESTSTAYMELSSLRSEDTAVYYCARDLRYRYNAYDGADAFDIWGQGTTVTVSS
VL: QSALTQPASVSGSPGQSITISCTGTSSDVGGYNYVSWYQQHPGKAPKLMIFEVSNRPSGVSNRFSGSKSGNTASLTISGLQAEDEADYYCTSYTKSNSVVFGGGTKLTVL
notes: full-length IgG
As for B10, the binding result in assay [3] is listed as “no binding”. Further, in assay [4], the “Neut IC50 subtype A” value was 0.86 µg/mL.

B11: ADI-24799 (antibody, V domains shown)
VH: EVQLVESGGGLVKPGGSLRLSCAASGFTFSSYSMNWVRQAPGKGLEWVSSISSSSSYIYYADSVKGRFTISRDNAKNSLYLQMNSLRAEDTAVYYCAREGRDGYNYYFDYWGQGTLVTVSS
VL: QSVLTQPPSVSGAPGQRVTISCTGSSSNIGAGYDVHWYQQLPGTAPKLLIYGNSNRPSGVPDRFSGSKSGTSASLAITGLQAEDEADYYCQSYDSSLSGSVFGGGTKLTVL
notes: full-length IgG
As to B11, the binding result in assay [3] is reported as “no binding”. In addition, binding in assay [1] was characterised by a dissociation constant (Kd) of 19 nM. Also, in assay [4], the “Neut IC50 subtype A” value was 11.5 µg/mL.

B12: ADI-43643 (antibody, V domains shown)
VH: QVQLVQSGGGLVKPGGSLRLSCAASGFTFSSYSMNWVRQAPGKGLEWVSSISSSSSYIYYADSVKGRFTISRDNAKNSLYLQMNSLRAEDTAVYYCARVLSGYSYGYDYWGQGTLVTVSS
VL: QSVLTQPPSVSGAPGQRVTISCTGSSSNIGAGYDVHWYQQLPGTAPKLLIYGNSNRPSGVPDRFSGSKSGTSASLAITGLQAEDEADYYCQSYDSSLSGSVFGTGTKVTVL
As for B12, the “Neutralization IC50 (RSV subtype A)” value in the assay with RSV F on RSV-A2 virus was > 25 µg/mL.

B13: ADI-14388 (antibody, V domains shown)
VH: EVQLVESGGGVVQPGRSLRLSCAASGFTFSSYPMHWVRQAPGKGLEWVAVISYDGSNKYYADSVKGRFTISRDNSKNTLYLQMNSLRAEDTAVYSCARAQSAAIFDHWGQGTLVTVSS
VL: QAVVTQEPSLTVSPGGTVTLTCASSTGAVTSGYYPNWFQQKPGQAPRALIYTTSKRHSWTPARFSGSLLGGKAALTLSGVQPEDEADYYCLLYYGGANWVFGGGTKLTVL
notes: full-length IgG; also called Ab 55
As to B13, the binding result in assay [3] is “no binding”. Also, the Kd in assay [1] amounted to 5.5 nM. Also, the “Neut IC50 subtype B” value in assay [2] was found to be 3.07 µg/mL.

B14: ADI-41542 (antibody, V domains shown)
VH: EVQLVESGVAVKKPGESLKISCKGSGYNFDSFWIGWVRQLPGKGLEWMGIIFPGDSDTRYGPSFQGQVTISADKSINTAYLQWRSLKASDTAMYYCARHGLGGYDNSGYNLWGHGTMVTVSS
VL: DIVMTQSPSSLSASVGDRVTITCQASHDISTSLNWYQQKPGKAPNLLISDASTLERGVPSRFSGGGSGTEFTFTISSLQPEDIATYYCQQFENLPITFGQGTRLEIK
In the case of B14, in the assay with RSV F on RSV-A2 virus, the “Neutralization IC50 (RSV subtype A)” value is 0.69 µg/mL.

B15: ADI-19428 (antibody, V domains shown)
VH: EVQLLESGGGLVKPGGSLRLSCAASGFTFSSYSMNWVRQAPGKGLEWVSSISSSSSYIYYADSVKGRFTISRDNAKNSLYLQMNSLRAEDTAVYYCARDSCSGGSCYSPRFDPWGQGTLVTVSS
VL: QSVLTQPPSVSGAPGQRVTISCTGSSSNIGAGYDVHWYQQLPGTAPKLLIYGNSNRPSGVPDRFSGSKSGTSASLAITGLQAEDEADYYCQSYDSTVVFGGGTKLTVL
notes: full-length IgG
In the case of B15, in assay [3], the binding result is reported as “no binding”. Also, the Kd in assay [1] is 16.7 nM. Moreover, the “Neut IC50 subtype A” value in assay [4] amounted to 3.25 µg/mL.

B16: ADI-19433 (antibody, V domains shown)
VH: EVQLVESGGGLVKPGGSLRLSCAASGFTFSSYSMNWVRQAPGKGLEWVSSISSSSSYIYYADSVKGRFTISRDNAKNSLYLQMNSLRAEDTAVYYCARAPPSVGGWYFDLWGRGTLVTVSS
VL: QPVLTQPPSVSGAPGQRVTISCTGSSSNIGAGYDVHWYQQLPGTAPKLLIYGNSNRPSGVPDRFSGSKSGTSASLAITGLQAEDEADYYCQSYDSSLVFGGGTKLTVL
notes: full-length IgG
On to B16, for which the binding result in assay [3] is given as “no binding”. Besides, the “Neut IC50 subtype A” value in assay [4] is 1.56 µg/mL.

B17: ADI-14377 (antibody, V domains shown)
VH: EVQLVESGGGVVQPGGSLRLSCAVSGITFSSYGMHWVRQAPGKGLEWVAFIRYDGSNKYYGDSLRGRFTISRDNSKNTLYLQMNSLRAEDTAVYYCAKDAVGIGGYYGLDVWGQGTTVTVSS
VL: DIQMTQSPSSLSASVGDRVTITCRASQGIRNDLGWYQQKPGKAPKRLIYAASSLQSGVPSRFSGSGSGTEFTLTISSLQPEDFATYYCLQHNGYPWTFGQGTKVEIK
notes: full-length IgG; also called Ab 45
As for B17, in assay [3], the binding result is “no binding”. The molecule also yielded a Kd in assay [1] of 5.28 nM. Besides, the “Neut IC50 subtype B” value in assay [2] was determined as 2.13 µg/mL.

B18: ADI-14391 (antibody, V domains shown)
VH: QVQLVESGGGLVQPGGSLRLSCAAAGFSFSNYAMSWVRQAPGKGLEWVAVISGNAGSTYYAESVKGRFTISRDNSKNTLHLQMNSLRGEDTAVYYCAKPPGIAVAGEYYWYFDLWGRGTLVTVSS
VL: QVQLMQPPSVSVSPGQTARITCSGDALPRENAYWYQQKSGQAPVLVIYEDSKRPSGIPERFSGSSSGTMATLTITGAQVEDEADYYCYSTDTSAYHWVFGGGTKLTVL
notes: full-length IgG; also called Ab 58
For B18, the binding result in assay [3] is “no binding”. The Kd in assay [1] stood at 5.36 nM. The “Neut IC50 subtype B” value in assay [2] was found to be 22.2 µg/mL.

B19: ADI-14349 (antibody, V domains shown)
VH: EVQLVESGAEVKKPGSSVKVSCKASGGTLSSYAFSWVRQAPGQGLEWMGGVIPISATSDYAQKFQGRVTITADESTSTVYMELRSLRSEDTAVYYCARDTRYSSGWFYDYWGQGTLVTVSS
VL: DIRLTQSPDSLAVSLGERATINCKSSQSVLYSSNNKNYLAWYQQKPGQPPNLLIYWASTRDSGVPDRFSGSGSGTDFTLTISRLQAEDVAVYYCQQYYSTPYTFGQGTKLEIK
notes: full-length IgG; also called Ab 17
As for B19, in assay [3], the binding result is “no binding”. This molecule also had a dissociation constant Kd in assay [1] of 4.07 nM. For the same molecule, in assay [2], the “Neut IC50 subtype B” value turned out to be 1.84 µg/mL.

As a reminder, the Kd is a measure of binding affinity in units of concentration. Higher therefore signals weaker binding.

The record behind these values is patent US20260258115A1 (MAPP BIOPHARMACEUTICAL, published 2026).
